These results are taken from patent publication US20020114797, “Composition and methods for modulating the length of telomeres” (Telogene Inc., published 2002).

Series [1] has as its target T1, GST-UP1 (hnRNP A1 proteolytic fragment UP1) (UniProt P49312 P49312:1-196). Put plainly: pulldown; glutathione Sepharose beads, washes at 165 mM NaCl; highest recovery; plain beads less than 10% of bound. Conditions: tags: N-terminal GST fusion (inferred); label: 32P. Here is the method:
(§1) Following 5×1 ml washes in buffer containing 165 mM NaCl, the recovery of the labelled oligos was measured. The (TTAGGG)₃ oligonucleotide was recovered with the highest yield. A control experiment with plain beads yielded less that 10% of bound (TTAGGG)₃ oligonucleotide. A labelled DNA oligonucleotide containing the complementary sequence (CCCTAA)₃ was recovered at background level. […] UP1 associated directly with telomeric repeats carrying the TTAGGG sequence. Gel-shift assays performed with mutated oligonucleotides indicate that UP1 binds specifically to (TTAGGG)₃ oligonucleotide.
(§2) ³²P-labelled DNA oligonucleotides were mixed with Glutathione Sepharose 4B beads containing or lacking the GST-UP1 fusion protein. Following 5×1 ml washes in buffer containing 165 mM NaCl, the recovery of the labelled oligos was measured. The (TTAGGG)₃ oligonucleotide was recovered with the highest yield. A control experiment with plain beads yielded less that 10% of bound (TTAGGG)₃ oligonucleotide. A labelled DNA oligonucleotide containing the complementary sequence (CCCTAA)₃ was recovered at background level. […] Thus, UP1 can associate directly with telomeric repeats carrying the TTAGGG sequence. Furthermore, gel-shift assays performed with mutated oligonucleotides indicate that UP1 binds specifically to (TTAGGG)₃ oligonucleotide. […] It remains to be shown whether UP1 associates with telomeric repeats in vivo.

Series [2] addresses T1, GST-UP1 (hnRNP A1 proteolytic fragment …). Put plainly: pulldown; background level recovery; 165 mM NaCl washes; also tested by gel shift (FIG. 3 lane 9). Conditions: tags: N-terminal GST fusion (inferred); label: 32P. How it is done:
as §1, §2
On the technique in general: Mobility shift assays separate free from complexed probe on a gel.

T1 sequence (P49312 1-196, one chain of several): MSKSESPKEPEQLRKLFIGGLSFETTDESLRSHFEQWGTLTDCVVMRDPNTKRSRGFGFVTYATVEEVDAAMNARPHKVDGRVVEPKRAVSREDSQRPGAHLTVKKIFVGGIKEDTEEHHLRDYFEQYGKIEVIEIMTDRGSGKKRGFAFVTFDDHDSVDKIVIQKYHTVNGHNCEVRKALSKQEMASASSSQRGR

TTAGGGTTAGGGTTAGGG (ssDNA) [vertebrate telomeric (TTAGGG)3]: in series [1], the binding result is recorded as “binds”.
As to CCCTAACCCTAACCCTAA (ssDNA) [complementary C-strand (CCCTAA)3], in series [2], the binding result is given as “no binding”.
